Test results as given in article PMC4912689, “The Extracellular Surface of the GLP-1 Receptor Is a Molecular Trigger for Biased Agonism” (Cell, 2016).
Numbering of substitutions follows the chain as printed. Names and notes keep the numbering of the source.

Molecular target: exendin-4, P26349
Experiment: radioligand inhibition binding (competition with 125I-exendin-4(9-39))
Conditions: chain shown with the change;; read off a plot

B1: glucagon-like peptide 1 receptor (GLP-1R), wild-type, P43220 E292A (protein)
chain: RPQGATVSLWETVQKWREYRRQCQRSLTEDPPPATDLFCNRTFDEYACWPDGEPGSFVNVSCPWYLPWASSVPQGHVYRFCTAEGLWLQKDNSSLPWRDLSECEESKRGERSSPEEQLLFLYIIYTVGYALSFSALVIASAILLGFRHLHCTRNYIHLNLFASFILRALSVFIKDAALKWMYSTAAQQHQWDGLLSYQDSLSCRLVFLLMQYCVAANYYWLLVEGVYLYTLLAFSVLSEQWIFRLYVSIGWGVPLLFVVPWGIVKYLYADEGCWTRNSNMNYWLIIRLPILFAIGVNFLIFVRVICIVVSKLKANLMCKTDIKCRLAKSTLTLIPLLGTHEVIFAFVMDEHARGTLRFIKLFTELSFTSFQGLMVAILYCFVNNEVQLEFRKSWERWRLEHLHIQRDSSMKPLKCPTSSLSSGATAGSSMYTATCQASCS
With B1 the log10 ratio was -1.8 ΔpKi.

B2: glucagon-like peptide 1 receptor (GLP-1R), wild-type, P43220 E387A (protein)
chain: B1 chain with A269E, E364A
For B2, the log10 ratio was -0.4 ΔpKi.

B3: glucagon-like peptide 1 receptor (GLP-1R), wild-type, P43220 L201A (protein)
chain: B1 chain with L178A, A269E
B3 was tested, and the log10 ratio was -0.3 ΔpKi.

B4: glucagon-like peptide 1 receptor (GLP-1R), wild-type, P43220 D222A (protein)
chain: B1 chain with D199A, A269E
In the case of B4, the log10 ratio is reported as -0.25 ΔpKi.

B5: glucagon-like peptide 1 receptor (GLP-1R), wild-type, P43220 N300A (protein)
chain: B1 chain with A269E, N277A
With B5 the log10 ratio was -1.8 ΔpKi.

B6: glucagon-like peptide 1 receptor (GLP-1R), wild-type, P43220 Q213A (protein)
chain: B1 chain with Q190A, A269E
In the case of B6, the log10 ratio is reported as -0.15 ΔpKi.

B7: glucagon-like peptide 1 receptor (GLP-1R), wild-type, P43220 Y220A (protein)
chain: B1 chain with Y197A, A269E
B7 was tested, and the log10 ratio was 0.1 ΔpKi.

B8: glucagon-like peptide 1 receptor (GLP-1R), wild-type, P43220 G295A (protein)
chain: B1 chain with A269E, G272A
For B8, the log10 ratio was -0.1 ΔpKi.

B9: glucagon-like peptide 1 receptor (GLP-1R), wild-type, P43220 S223A (protein)
chain: B1 chain with S200A, A269E
For B9, the log10 ratio was -0.4 ΔpKi.

B10: glucagon-like peptide 1 receptor (GLP-1R), wild-type, P43220 S206A (protein)
chain: B1 chain with S183A, A269E
B10 was tested, and the log10 ratio was -0.2 ΔpKi.

B11: glucagon-like peptide 1 receptor (GLP-1R), wild-type, P43220 I286A (protein)
chain: B1 chain with I263A, A269E
With B11 the log10 ratio was -0.3 ΔpKi.

B12: glucagon-like peptide 1 receptor (GLP-1R), wild-type, P43220 K383A (protein)
chain: B1 chain with A269E, K360A
With B12 the log10 ratio was -1.1 ΔpKi.

B13: glucagon-like peptide 1 receptor (GLP-1R), wild-type, P43220 D372A (protein)
chain: B1 chain with A269E, D349A
In the case of B13, the log10 ratio is reported as -1.1 ΔpKi.

B14: glucagon-like peptide 1 receptor (GLP-1R), wild-type, P43220 L218A (protein)
chain: B1 chain with L195A, A269E
B14 was tested, and the log10 ratio was -0.95 ΔpKi.

B15: glucagon-like peptide 1 receptor (GLP-1R), wild-type, P43220 Q221A (protein)
chain: B1 chain with Q198A, A269E
For B15, the log10 ratio was -0.2 ΔpKi.

B16: glucagon-like peptide 1 receptor (GLP-1R), wild-type, P43220 T386A (protein)
chain: B1 chain with A269E, T363A
With B16 the log10 ratio was -0.55 ΔpKi.

B17: glucagon-like peptide 1 receptor (GLP-1R), wild-type, P43220 Y205A (protein)
chain: B1 chain with Y182A, A269E
With B17 the log10 ratio was -0.5 ΔpKi.

B18: glucagon-like peptide 1 receptor (GLP-1R), wild-type, P43220 H374A (protein)
chain: B1 chain with A269E, H351A
In the case of B18, the log10 ratio is reported as -0.35 ΔpKi.

B19: glucagon-like peptide 1 receptor (GLP-1R), wild-type, P43220 Y305A (protein)
chain: B1 chain with A269E, Y282A
B19 was tested, and the log10 ratio was -1.7 ΔpKi.

B20: glucagon-like peptide 1 receptor (GLP-1R), wild-type, P43220 M204A (protein)
chain: B1 chain with M181A, A269E
With B20 the log10 ratio was -0.75 ΔpKi.

B21: glucagon-like peptide 1 receptor (GLP-1R), wild-type, P43220 W203A (protein)
chain: B1 chain with W180A, A269E
In the case of B21, the log10 ratio is reported as -0.15 ΔpKi.
